Assay results published in publication PMC3029386, “Determinants Outside the DevR C-Terminal Domain Are Essential for Cooperativity and Robust Activation of Dormancy Genes in Mycobacterium tuberculosis”.

Columns and labels:
[1] = target: DevRC (DevR C-terminal domain) (Mycobacterium tuberculosis H37Rv, UniProt P9WMF9 141-217); assay: EMSA; conditions: protein: recombinant; tags: N-terminal His6 (pET28a, pUS-DevRC); chain copies: 2
DevR (full-length) = DevR (full-length) (Mycobacterium tuberculosis, UniProt P9WMF9 1-217); assay: EMSA; conditions: protein: recombinant; tags: N-terminal His6 (pAV-DevR); chain copies: 2
DevR (full-length), sequence (P9WMF9 whole entry): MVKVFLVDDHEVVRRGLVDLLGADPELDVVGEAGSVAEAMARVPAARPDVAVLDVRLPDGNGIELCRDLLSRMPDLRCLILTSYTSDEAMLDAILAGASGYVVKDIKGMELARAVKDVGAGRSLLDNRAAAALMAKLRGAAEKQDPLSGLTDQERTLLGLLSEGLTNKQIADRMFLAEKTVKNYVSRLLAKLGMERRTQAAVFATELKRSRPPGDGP

DevRC (DevR C-terminal domain), sequence (P9WMF9 141-217): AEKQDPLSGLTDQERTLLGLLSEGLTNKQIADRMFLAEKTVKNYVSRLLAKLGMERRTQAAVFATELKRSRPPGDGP

B1: P+S box (LH1/LH2), tgs1-Rv3131 promoter (dsDNA)
DNA 1: CGAGTCGACAGAGCACGAAGGCTCGCCAGCGGAGGACCTTTGGCCCTGCGTCGACCGA
DNA 2: TCGGTCGACGCAGGGCCAAAGGTCCTCCGCTGGCGAGCCTTCGTGCTCTGGTCGACTCG
binding result [1]: binds
binding result (DevR (full-length)): binds
